Experiments:
[1] = molecular target: T1, IL12Rβ2-Fc (human, UniProt Q99665 24-622); assay: SPR and competition ELISA, against IL12Rb2#1
T1 construct: extracellular domain; bought; also called hIL-12Rβ2-Fc; Fc-fusion of human IL12Rβ2 extracellular domain (R&D Systems #1959-B2)
T1 sequence (looked up): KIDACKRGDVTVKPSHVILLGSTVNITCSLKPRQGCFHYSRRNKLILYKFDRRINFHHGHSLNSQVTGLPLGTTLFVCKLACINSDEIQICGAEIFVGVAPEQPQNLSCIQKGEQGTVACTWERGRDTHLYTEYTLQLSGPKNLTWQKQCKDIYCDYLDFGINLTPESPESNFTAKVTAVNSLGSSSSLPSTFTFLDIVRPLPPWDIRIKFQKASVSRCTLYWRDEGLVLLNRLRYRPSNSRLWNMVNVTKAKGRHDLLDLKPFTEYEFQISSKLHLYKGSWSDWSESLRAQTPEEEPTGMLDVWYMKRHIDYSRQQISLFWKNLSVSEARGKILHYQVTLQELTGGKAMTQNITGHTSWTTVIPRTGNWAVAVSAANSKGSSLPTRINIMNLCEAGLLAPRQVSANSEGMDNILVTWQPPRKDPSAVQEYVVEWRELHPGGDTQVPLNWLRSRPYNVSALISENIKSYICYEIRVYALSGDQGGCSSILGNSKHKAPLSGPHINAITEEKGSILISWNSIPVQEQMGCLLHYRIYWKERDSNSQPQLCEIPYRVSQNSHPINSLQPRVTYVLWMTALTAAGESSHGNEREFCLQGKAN

[2] = molecular target: T2, human CD4, cell-expressed (human, UniProt P01730 26-458); assay: cell-based or functional assay
[3] = molecular target: T3, IL23R, cell-expressed on human T cells (human, UniProt Q5VWK5 24-629); assay: cell-based or functional assay
T3 sequence (looked up): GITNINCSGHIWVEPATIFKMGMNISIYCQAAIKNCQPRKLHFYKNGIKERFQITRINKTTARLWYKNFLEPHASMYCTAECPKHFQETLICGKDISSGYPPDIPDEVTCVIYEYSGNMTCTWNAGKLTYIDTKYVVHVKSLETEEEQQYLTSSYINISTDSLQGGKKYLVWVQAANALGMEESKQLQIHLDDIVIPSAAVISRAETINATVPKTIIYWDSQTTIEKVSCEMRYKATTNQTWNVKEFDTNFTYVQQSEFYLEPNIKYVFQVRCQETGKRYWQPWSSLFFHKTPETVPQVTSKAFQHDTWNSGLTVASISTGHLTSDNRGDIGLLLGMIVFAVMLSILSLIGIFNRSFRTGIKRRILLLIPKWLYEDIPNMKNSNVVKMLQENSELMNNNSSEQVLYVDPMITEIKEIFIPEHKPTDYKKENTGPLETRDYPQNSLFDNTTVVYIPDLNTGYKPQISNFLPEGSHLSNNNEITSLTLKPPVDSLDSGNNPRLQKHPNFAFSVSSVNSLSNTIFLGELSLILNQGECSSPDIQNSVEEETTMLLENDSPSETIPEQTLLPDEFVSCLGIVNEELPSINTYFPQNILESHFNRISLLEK

[4] = molecular target: T2, human CD4, cell-expressed; assay: FACS, MOLM-13 cells
[5] = molecular target: T4, human CXCR4 (on cells, membrane extracts or viral lipoparticles) (human, UniProt P61073 1-352); assay: cell-based or functional assay
T4 sequence (P61073 whole entry, the tested form may be a part): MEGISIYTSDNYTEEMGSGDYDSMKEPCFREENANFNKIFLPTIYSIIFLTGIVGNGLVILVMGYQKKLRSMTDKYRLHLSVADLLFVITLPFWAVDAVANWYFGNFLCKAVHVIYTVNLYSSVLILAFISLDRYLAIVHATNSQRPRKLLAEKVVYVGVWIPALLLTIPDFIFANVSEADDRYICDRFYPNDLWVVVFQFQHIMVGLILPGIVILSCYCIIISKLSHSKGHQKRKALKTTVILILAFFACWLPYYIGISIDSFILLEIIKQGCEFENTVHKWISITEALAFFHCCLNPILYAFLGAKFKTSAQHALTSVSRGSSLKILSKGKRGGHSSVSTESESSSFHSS

[6] = molecular target: T5, recombinant IL-3Rα ectodomain (UniProt P26951 19-305, limits assumed); assay: ELISA, recombinant IL-3Ra
T5 construct: extracellular domain; also called IL-3Ra ectodomain; recombinant IL-3Ra
T5 sequence (looked up): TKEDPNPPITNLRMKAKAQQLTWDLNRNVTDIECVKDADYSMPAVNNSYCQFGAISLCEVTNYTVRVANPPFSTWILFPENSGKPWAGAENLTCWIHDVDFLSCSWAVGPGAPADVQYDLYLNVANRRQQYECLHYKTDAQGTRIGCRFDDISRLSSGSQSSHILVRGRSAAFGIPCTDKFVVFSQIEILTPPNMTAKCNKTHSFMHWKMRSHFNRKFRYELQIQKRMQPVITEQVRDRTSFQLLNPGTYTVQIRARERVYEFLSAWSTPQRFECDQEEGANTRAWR

[7] = molecular target: CXCR4 and CD4 co-expressed on cells (human, UniProt P61073 1-352; P01730 26-458); assay: cell-based or functional assay
Chain of CXCR4 and CD4 co-expressed on cells (P61073 whole entry, chain 1 of 2, other chains not shown): as the sequence (P61073 whole entry, the tested form may be a part) above

[8] = molecular target: T4, human CXCR4 (on cells, membrane …); assay: ELISA, hCXCR4 VLPs

B1: IL12Rb2#2: 135A07 (VHH)
VHH: EVQLVESGGRLVQAGDSLRLSCAASGRTFTSYRMGWFRQAPGKEREFVSALRWSSGNIDYTYYADSVKGRFSISGDYAKNTVYLQMNSLKAEDTAVYYCAASTRWGVMESDTEYTSWGQGTLVTVSS
notes: also called LG135A07; IL12Rβ2#2
fold difference in KD and ligand competition between the family members [1]: 3.5 fold

B2: 03F11 (CD4#8, Table 10) (VHH)
VHH: EVQLVESGGGSVQPGGSLTLSCGTSGRTFNVMGWFRQAPGKEREFVAAVRWSSTGIYYTQYADSVKSRFTISRDNAKNTVYLEMNSLKPEDTAVYYCAADTYNSNPARWDGYDFRGQGTQVTVSS
IC50, HIV-1 BaL(R5) in PBMC [2]: 610 nM

B3: IL23R#19-CD4#8 (bispecific antibody)
chain: EVQLVESGGGLVQPGGSLTLSCVASGRTFSTDVMGWFRQAPGKEREFVAAHRTSGISTVYAASVKGRFTISRDNAKNTVYLGMKSLKPEDTAVYVCAAGSDASGGYDYWGQGTLVTVSSGGGGSGGGGSGGGGSGGGGSGGGGSGGGGSGGGGSEVQLVESGGGSVQPGGSLTLSCGTSGRTFNVMGWFRQAPGKEREFVAAVRWSSTGIYYTQYADSVKSRFTISRDNAKNTVYLEMNSLKPEDTAVYYCAADTYNSNPARWDGYDFRGQGTLVTVSS
notes: also called BI#42; T023200042
IC50, IL-17 release PBMC D840 [3]: 58.9 nM
fold ctrl, IL-17 release PBMC D840 [3]: 1.7 fold
binding result [4]: binds

B4: 281F12-55A01 (4CXCR281F12(Q108L)-35GS-A0110055A01) (bispecific antibody)
chain: EVQLVESGGGLVQAGDSLRLSCAASGRAFSRYAMGWFRQAPGKEREFVAAIGWGPSKTNYADSVKGRFTISRDNAKNTVYLQMNTLKPEDTAVYSCAAKFVNTDSTWSRSEMYTYWGQGTLVTVSSGGGGSGGGGSGGGGSGGGGSGGGGSGGGGSGGGGSEVQLVESGGGSVQAGGSLRLSCTTSGRALNMYVMGWFRQAPGNEREFVAATSSSGGSTSYPDSVKGRFTISRDNAKNTVYLQMNSLKPEDTAAYRCAASPYVSTPTMNILEEYRYWGQGTLVTVSSAAAEQKLISEEDLNGAAHHHHHH
notes: the entry carries a c-myc-His6 tag; also made as Flag3-His6-tagged protein; also called CXCR4#2-CD123#2; BI#3/17
Fold inc. vs anti-CXCR4 building block, Jurkat E6-1 [5]: 1.13 fold
Fold inc. vs anti-CXCR4 building block, MOLM-13 [5]: 10.9 fold
IC50, CXCL-12 induced chemotaxis, Jurkat E6-1 [5]: 86 nM
IC50, CXCL-12 induced chemotaxis, MOLM-13 [5]: 7.85 nM
binding result [6]: binds

B5: 281F12-25GS-03F11 (bispecific antibody)
chain: EVQLVESGGGLVQAGDSLRLSCAASGRAFSRYAMGWFRQAPGKEREFVAAIGWGPSKTNYADSVKGRFTISRDNAKNTVYLQMNTLKPEDTAVYSCAAKFVNTDSTWSRSEMYTYWGQGTQVTVSSGGGGSGGGGSGGGGSGGGGSGGGGSEVQLVESGGGSVQPGGSLTLSCGTSGRTFNVMGWFRQAPGKEREFVAAVRWSSTGIYYTQYADSVKSRFTISRDNAKNTVYLEMNSLKPEDTAVYYCAADTYNSNPARWDGYDFRGQGTQVTVSS
notes: also called CXCR4#2-25GS-CD4#8
IC50, HIV-1 NL 4.3(X4) in MT-4 [7]: 0.21 nM
IC50, HIV-1 NL 4.3(X4) in PBMC [7]: 0.12 nM
IC50, HIV-1 NL 4.3 (X4) in U87 [7]: 2.67 nM
binding result [8]: binds
